Measured values reported in patent US20170360875A1 (priority 2014, published 2017).
Values joined by “and” are separate entries in the source; they are usually repeats but may differ in a detail not shown here. Equal values may be shown once.

Target: Sudan Ebolavirus, Boniface (Bei Resources NR-31810; sonicated, gamma-irradiated infected Vero E6 cell pellets)

**Q.** For “preformed immune complex of peroxidase-rabbit anti-peroxidase IgG (PAP complex) (from UniProt P00433 31-338)”, which OD 405 nm is on record?
**A.** 1.42 OD 405 nm and 1.29 OD 405 nm and 1.08 OD 405 nm
